Consider eleven molecules from patent publication US20260167699A1 (Chugai, published 2026).

For this experiment, the target named is T1, FcγRIIIa (human, UniProt P08637 17-208).
T1 construct: extracellular domain; also called 3a; FcγRIIIa extracellular domain
The experiment in a line: SPR (Biacore).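 Also: antibody variants captured on an SPR sensor chip, with FcγRIIIa passed over as analyte in HBS-EP+ buffer at 25 °C.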

T1 sequence (P08637 other isoform, or with tags, fused parts or gaps): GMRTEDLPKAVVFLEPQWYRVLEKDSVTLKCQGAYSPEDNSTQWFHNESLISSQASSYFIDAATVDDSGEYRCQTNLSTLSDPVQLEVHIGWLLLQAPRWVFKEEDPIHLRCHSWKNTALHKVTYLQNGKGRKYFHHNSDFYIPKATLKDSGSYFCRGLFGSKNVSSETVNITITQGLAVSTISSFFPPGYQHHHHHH

B1: GpH7-A5/GpH7-B3 variant E333_16H/GpL16-k0 (antibody, human IgG1, kappa)
heavy 1: not shown
heavy 2: not shown
light: DIVMTQSPLSLPVTPGEPASISCQASESLVHSNRNTYLHWYLQKPGQSPQLLIYKVSNRFSGVPDRFSGSGSGTDFTLKISRVEAEDVGVYYCSQNTHVPPTFGQGTKVEIERTVAAPSVFIFPPSDEQLKSGTASVVCLLNNFYPREAKVQWKVDNALQSGNSQESVTEQDSKDSTYSLSSTLTLSKADYEKHKVYACEVTHQGLSSPVTKSFNRGEC
notes: copies: 1 + 1 + 2
B1: the “He/Con 3a” value was 106 % of GpH7-A5/GpH7-B3/GpL16-k0.

B2: GpH7-A5/GpH7-B3 variant G236_09D/GpL16-k0 (antibody, human IgG1, kappa)
heavy 1: not shown
heavy 2: not shown
light: DIVMTQSPLSLPVTPGEPASISCQASESLVHSNRNTYLHWYLQKPGQSPQLLIYKVSNRFSGVPDRFSGSGSGTDFTLKISRVEAEDVGVYYCSQNTHVPPTFGQGTKVEIERTVAAPSVFIFPPSDEQLKSGTASVVCLLNNFYPREAKVQWKVDNALQSGNSQESVTEQDSKDSTYSLSSTLTLSKADYEKHKVYACEVTHQGLSSPVTKSFNRGEC
notes: copies: 1 + 1 + 2
As to B2, the “He/Con 3a” value is 66.2 % of GpH7-A5/GpH7-B3/GpL16-k0.

B3: GpH7-A5/GpH7-B3 variant G236_10E/GpL16-k0 (antibody, human IgG1, kappa)
heavy 1: not shown
heavy 2: not shown
light: DIVMTQSPLSLPVTPGEPASISCQASESLVHSNRNTYLHWYLQKPGQSPQLLIYKVSNRFSGVPDRFSGSGSGTDFTLKISRVEAEDVGVYYCSQNTHVPPTFGQGTKVEIERTVAAPSVFIFPPSDEQLKSGTASVVCLLNNFYPREAKVQWKVDNALQSGNSQESVTEQDSKDSTYSLSSTLTLSKADYEKHKVYACEVTHQGLSSPVTKSFNRGEC
notes: copies: 1 + 1 + 2
On to B3, for which the “He/Con 3a” value was 65.8 % of GpH7-A5/GpH7-B3/GpL16-k0.

B4: GpH7-A5/GpH7-B3 variant E333_19Q/GpL16-k0 (antibody, human IgG1, kappa)
heavy 1: not shown
heavy 2: not shown
light: DIVMTQSPLSLPVTPGEPASISCQASESLVHSNRNTYLHWYLQKPGQSPQLLIYKVSNRFSGVPDRFSGSGSGTDFTLKISRVEAEDVGVYYCSQNTHVPPTFGQGTKVEIERTVAAPSVFIFPPSDEQLKSGTASVVCLLNNFYPREAKVQWKVDNALQSGNSQESVTEQDSKDSTYSLSSTLTLSKADYEKHKVYACEVTHQGLSSPVTKSFNRGEC
notes: copies: 1 + 1 + 2
For the molecule B4, the “He/Con 3a” value was 101 % of GpH7-A5/GpH7-B3/GpL16-k0.

B5: GpH7-A5/GpH7-B3 variant G236_04F/GpL16-k0 (antibody, human IgG1, kappa)
heavy 1: not shown
heavy 2: not shown
light: DIVMTQSPLSLPVTPGEPASISCQASESLVHSNRNTYLHWYLQKPGQSPQLLIYKVSNRFSGVPDRFSGSGSGTDFTLKISRVEAEDVGVYYCSQNTHVPPTFGQGTKVEIERTVAAPSVFIFPPSDEQLKSGTASVVCLLNNFYPREAKVQWKVDNALQSGNSQESVTEQDSKDSTYSLSSTLTLSKADYEKHKVYACEVTHQGLSSPVTKSFNRGEC
notes: copies: 1 + 1 + 2
For the molecule B5, the “He/Con 3a” value is 81 % of GpH7-A5/GpH7-B3/GpL16-k0.

B6: GpH7-A5/GpH7-B3 variant E333_15Y/GpL16-k0 (antibody, human IgG1, kappa)
heavy 1: not shown
heavy 2: not shown
light: DIVMTQSPLSLPVTPGEPASISCQASESLVHSNRNTYLHWYLQKPGQSPQLLIYKVSNRFSGVPDRFSGSGSGTDFTLKISRVEAEDVGVYYCSQNTHVPPTFGQGTKVEIERTVAAPSVFIFPPSDEQLKSGTASVVCLLNNFYPREAKVQWKVDNALQSGNSQESVTEQDSKDSTYSLSSTLTLSKADYEKHKVYACEVTHQGLSSPVTKSFNRGEC
notes: copies: 1 + 1 + 2
As to B6, the “He/Con 3a” value was 101 % of GpH7-A5/GpH7-B3/GpL16-k0.

B7: GpH7-A5/GpH7-B3 variant E333_18N/GpL16-k0 (antibody, human IgG1, kappa)
heavy 1: not shown
heavy 2: not shown
light: DIVMTQSPLSLPVTPGEPASISCQASESLVHSNRNTYLHWYLQKPGQSPQLLIYKVSNRFSGVPDRFSGSGSGTDFTLKISRVEAEDVGVYYCSQNTHVPPTFGQGTKVEIERTVAAPSVFIFPPSDEQLKSGTASVVCLLNNFYPREAKVQWKVDNALQSGNSQESVTEQDSKDSTYSLSSTLTLSKADYEKHKVYACEVTHQGLSSPVTKSFNRGEC
notes: copies: 1 + 1 + 2
Consider B7, for which the “He/Con 3a” value was 76.2 % of GpH7-A5/GpH7-B3/GpL16-k0.

B8: GpH7-A5/GpH7-B3 variant G236_02A/GpL16-k0 (antibody, human IgG1, kappa)
heavy 1: not shown
heavy 2: not shown
light: DIVMTQSPLSLPVTPGEPASISCQASESLVHSNRNTYLHWYLQKPGQSPQLLIYKVSNRFSGVPDRFSGSGSGTDFTLKISRVEAEDVGVYYCSQNTHVPPTFGQGTKVEIERTVAAPSVFIFPPSDEQLKSGTASVVCLLNNFYPREAKVQWKVDNALQSGNSQESVTEQDSKDSTYSLSSTLTLSKADYEKHKVYACEVTHQGLSSPVTKSFNRGEC
notes: copies: 1 + 1 + 2
As for B8, the “He/Con 3a” value is 77 % of GpH7-A5/GpH7-B3/GpL16-k0.

B9: GpH7-A5/GpH7-B3 variant E333_13S/GpL16-k0 (antibody, human IgG1, kappa)
heavy 1: not shown
heavy 2: not shown
light: DIVMTQSPLSLPVTPGEPASISCQASESLVHSNRNTYLHWYLQKPGQSPQLLIYKVSNRFSGVPDRFSGSGSGTDFTLKISRVEAEDVGVYYCSQNTHVPPTFGQGTKVEIERTVAAPSVFIFPPSDEQLKSGTASVVCLLNNFYPREAKVQWKVDNALQSGNSQESVTEQDSKDSTYSLSSTLTLSKADYEKHKVYACEVTHQGLSSPVTKSFNRGEC
notes: copies: 1 + 1 + 2
For the molecule B9, the “He/Con 3a” value was 106 % of GpH7-A5/GpH7-B3/GpL16-k0.

B10: GpH7-A5/GpH7-B3 variant G236_15Y/GpL16-k0 (antibody, human IgG1, kappa)
heavy 1: not shown
heavy 2: not shown
light: DIVMTQSPLSLPVTPGEPASISCQASESLVHSNRNTYLHWYLQKPGQSPQLLIYKVSNRFSGVPDRFSGSGSGTDFTLKISRVEAEDVGVYYCSQNTHVPPTFGQGTKVEIERTVAAPSVFIFPPSDEQLKSGTASVVCLLNNFYPREAKVQWKVDNALQSGNSQESVTEQDSKDSTYSLSSTLTLSKADYEKHKVYACEVTHQGLSSPVTKSFNRGEC
notes: copies: 1 + 1 + 2
In the case of B10, the “He/Con 3a” value is 112 % of GpH7-A5/GpH7-B3/GpL16-k0.

B11: GpH7-A5/GpH7-B3 variant G237_14T/GpL16-k0 (antibody, human IgG1, kappa)
heavy 1: not shown
heavy 2: not shown
light: DIVMTQSPLSLPVTPGEPASISCQASESLVHSNRNTYLHWYLQKPGQSPQLLIYKVSNRFSGVPDRFSGSGSGTDFTLKISRVEAEDVGVYYCSQNTHVPPTFGQGTKVEIERTVAAPSVFIFPPSDEQLKSGTASVVCLLNNFYPREAKVQWKVDNALQSGNSQESVTEQDSKDSTYSLSSTLTLSKADYEKHKVYACEVTHQGLSSPVTKSFNRGEC
notes: copies: 1 + 1 + 2
Consider B11, for which the “He/Con 3a” value is 50.5 % of GpH7-A5/GpH7-B3/GpL16-k0.
